Test results: US9969998B2, “Compositions of adenosine deaminase-2 (ADA2), variants thereof and methods of using same” (Halozyme, Inc., priority 2014, dated 2018)
Numbering of substitutions follows the chain as printed. Names may count otherwise.

Legend:
[1] = tested on: NK/T cells; test: rHuADA2 rescue of adenosine-mediated inhibition of NK/T cell proliferation; assay type: cell-based, human
Protocol: A mixture of NK and T cells (NK/T) were prepared from healthy donor's peripheral blood mononuclear cells (PBMC). Briefly, 10×10^7 HumanPBMCs were cultured for 6-7 days in Stem cell growth medium (SCGM; Order No. 20802-0500, CellGenix, Freiburg, Germany) with 5% human serum from donors with blood type AB (human AB serum; Cat. No. 35-060-C1, Mediatech, Mannassas, Va.) in the presence of 20 ng/mL anti-CD3 eBioscience, San Diego, Calif.; Cat. No. 16-0039) and 500 IU/mL recombinant human interleukin 2 (rhIL-2; Cat. No. 200-02, PeproTech, Rocky Hill, N.J.). The cells were then cultured for an additional 2-3 weeks in SCGM in the presence of 500 IU/mL rhIL-2. NK/T cells cultured for 2-4 weeks were used in experiments.
NK/T cells (10,000 cells/well) were plated in 96 well white plates with clear bottoms in a total volume of 180 μL. The cells were treated with 20 μL rHuADA2 at concentrations resulting from 3-fold dilution series, to give a final rHuADA2 concentration of 100 nM, 30 nM, 10 nM, 3 nM, 1 nM, 0.3 nM, 0.1 nM, and 0.03 nm, and then each well also was treated with 20 μL of adenosine at 1 mM. After treatment, the NK/T cells were cultured, processed and luminescence measured as described above. The mean cell survival (%) was determined by comparison of the measured luminescence to control cells not treated with adenosine or rHuADA2.
Experiments also were performed to assess the effect of rHuADA2 to reverse adenosine-mediated inhibition of NK/T cell proliferation at various concentrations of adenosine. The experiments were conducted in a similar manner as described above, with final adenosine concentration of 1 mM, 100, 50, or 25 μM and final rHuADA2 concentration of 100 nM, 30 nM, 10 nM, 3 nM, 1 nM, 0.3 nM, 0.1 nM, and 0.03 nM.

[2] = tested on: CT26 syngeneic tumors; test: Tumor growth inhibition of combination therapy with anti-PD-1 and anti-CTLA4, CT26 peritibial tumor model; assay type: in vivo, Balb/C mice; conditions: study day 10
Protocol: The murine CT26 syngeneic tumor model was used to compare the antitumor activity of combination therapy using PEGylated ADA2 with checkpoint inhibitors anti-PD-1 and anti-CTLA4 antibodies. CT26 syngeneic tumors were produced by injecting 2×10^5 CT26 cells in 0.05 mL injection volume per animal into the right peritibial muscle of male Balb/C mice. Tumor bearing mice were staged into treatment groups when the average tumor size reached 150 mm^3.
For treatment, animals were randomized into 8 groups (n=8/group) as follows: 1) saline vehicle control, 2) PEG-ADA2-K374D, 3) α-CTLA4 antibody (Clone 9D9, Cat. No. BE0164; BioXCell, West Lebanon, N.H., 4) α-PD-1 antibody (Clone RMP1-14, Cat. No. BE0146; BioXCell, West Lebanon, N.H.), 5) PEG-ADA2-K374D+α-CTLA4; 6) PEG-K374D+α-PD-1; 7) α-CTLA4+α-PD-1, or 8) Triple combo (PEG-ADA2-K374D+α-CTLA4+α-PD-1). PEG-ADA2-K374D was dosed intravenously 3× weekly at 10 mg/kg, α-CTLA4 was dosed intraperiotoneally biweekly at 4 mg/kg, and α-PD-1 was dosed intraperitoneally biweekly at 4 mg/kg. The sequence of dosing in the combination groups was as follows: PEG-ADA2-K374D followed by α-CTLA4 followed by α-PD-1.
Tumor volume was assessed twice weekly via ultrasound imaging using the Vevo2100 (Visual Sonics, Toronto, Canada) to determine tumor growth inhibition (TGI). Animals were anesthetized using light isoflurane anesthesia while the tumor volumes were measured. For tumor measurement, the region of interest was covered in ultrasound gel (Parker Laboratories, Fairfield, N.J.), and the RMV-716 (focal depth=17.5 mm) scan head was positioned directly over the region of interest. While in 2D-Mode, the approximate center of the tumor was located, and subsequently an image (˜150-200 frames) was captured using 3D-mode. Approximately 15-30 frames out of 150-200 frames were analyzed and a tumor volume calculated and expressed in mm^3. Tumor growth Inhibition (TGI) was calculated as described above.

B1: ADA2: wild-type human adenosine deaminase 2, mature form SEQ ID NO:5, homodimer (protein, listed as Homo sapiens)
chain: IDETRAHLLLKEKMMRLGGRLVLNTKEELANERLMTLKIAEMKEAMRTLIFPPSMHFFQAKHLIERSQVFNILRMMPKGAALHLHDIGIVTMDWLVRNVTYRPHCHICFTPRGIMQFRFAHPTPRPSEKCSKWILLEDYRKRVQNVTEFDDSLLRNFTLVTQHPEVIYTNQNVVWSKFETIFFTISGLIHYAPVFRDYVFRSMQEFYEDNVLYMEIRARLLPVYELSGEHHDEEWSVKTYQEVAQKFVETHPEFIGIKIIYSDHRSKDVAVIAESIRMAMGLRIKFPTVVAGFDLVGHEDTGHSLHDYKEALMIPAKDGVKLPYFFHAGETDWQGTSIDRNILDALMLNTTRIGHGFALSKHPAVRTYSWKKDIPIEVCPISNQVLKLVSDLRNHPVATLMATGHPMVISSDDPAMFGAKGLSYDFYEVFMGIGGMKADLRTLKQLAMNSIKYSTLLESEKNTFMEIWKKRWDKFIADVATK
modifications: ADA2 mature protein
MS % (mean survival) ([1]; ADA2 0.03 nM, 25 μM Adenosine): 81.7% | MS % (mean survival) ([1]; ADA2 0.03 nM, 50 μM Adenosine): 71.2% | MS % (mean survival) ([1]; ADA2 0.03 nM, 100 μM Adenosine): 45.9% | MS % (mean survival) ([1]; ADA2 0.03 nM, 1 mM Adenosine): 15.6% | MS % (mean survival) ([1]; ADA2 0.1 nM, 25 μM Adenosine): 89.6% | MS % (mean survival) ([1]; ADA2 0.1 nM, 50 μM Adenosine): 76.6% | MS % (mean survival) ([1]; ADA2 0.1 nM, 100 μM Adenosine): 43.8% | MS % (mean survival) ([1]; ADA2 0.1 nM, 1 mM Adenosine): 16.3% | MS % (mean survival) ([1]; ADA2 0.3 nM, 25 μM Adenosine): 90.5% | MS % (mean survival) ([1]; ADA2 0.3 nM, 50 μM Adenosine): 64.8% | MS % (mean survival) ([1]; ADA2 0.3 nM, 100 μM Adenosine): 57.8% | MS % (mean survival) ([1]; ADA2 0.3 nM, 1 mM Adenosine): 18.3% | MS % (mean survival) ([1]; ADA2 1 nM, 25 μM Adenosine): 99.3% | MS % (mean survival) ([1]; ADA2 1 nM, 50 μM Adenosine): 80.2% | MS % (mean survival) ([1]; ADA2 1 nM, 100 μM Adenosine): 71.7% | MS % (mean survival) ([1]; ADA2 1 nM, 1 mM Adenosine): 22.6% | MS % (mean survival) ([1]; ADA2 3 nM, 25 μM Adenosine): 107.4% | MS % (mean survival) ([1]; ADA2 3 nM, 50 μM Adenosine): 94% | MS % (mean survival) ([1]; ADA2 3 nM, 100 μM Adenosine): 91.6% | MS % (mean survival) ([1]; ADA2 3 nM, 1 mM Adenosine): 41.4% | MS % (mean survival) ([1]; ADA2 10 nM, 25 μM Adenosine): 121.2% | MS % (mean survival) ([1]; ADA2 10 nM, 50 μM Adenosine): 105.9% | MS % (mean survival) ([1]; ADA2 10 nM, 100 μM Adenosine): 108.3% | MS % (mean survival) ([1]; ADA2 10 nM, 1 mM Adenosine): 67.1% | MS % (mean survival) ([1]; ADA2 30 nM, 25 μM Adenosine): 117.2% | MS % (mean survival) ([1]; ADA2 30 nM, 50 μM Adenosine): 114.7% | MS % (mean survival) ([1]; ADA2 30 nM, 100 μM Adenosine): 114.4% | MS % (mean survival) ([1]; ADA2 30 nM, 1 mM Adenosine): 79.1% | MS % (mean survival) ([1]; ADA2 100 nM, 25 μM Adenosine): 120.6% | MS % (mean survival) ([1]; ADA2 100 nM, 50 μM Adenosine): 116.9% | MS % (mean survival) ([1]; ADA2 100 nM, 100 μM Adenosine): 109% | MS % (mean survival) ([1]; ADA2 100 nM, 1 mM Adenosine): 96.3%

B2: PEG-K374D: rHuADA2-K374D (SEQ ID NO:20) PEGylated on surface exposed lysines with linear PEG-20K (conjugate)
chain: B1 chain with K371D
modifications: linear PEG-20K on surface lysines; human ADA2 K371D, mature numbering
Average Group Tumor Volume, SD10 ([2]; PEG-ADA2-K374D 10 mg/kg IV 3x weekly, α-CTLA4 4 mg/kg IP biweekly, α-PD-1 4 mg/kg IP biweekly, ultrasound): 1499.11 mm^3 | Tumor Growth Inhibition ([2]; PEG-ADA2-K374D 10 mg/kg IV 3x weekly, α-CTLA4 4 mg/kg IP, α-PD-1 4 mg/kg IP biweekly): exhibited tumor growth inhibition activity | TGI ([2]; compared to vehicle control): 5% | Volume Range ([2]; range of tumor volume of all animals in the group): 1213-1594 mm^3
